We go through 4 molecules from publication PMC4299599, “Quantification of cytosolic interactions identifies Ede1 oligomers as key organizers of endocytosis” (Molecular Systems Biology, 2014).

The target in data set [1] is Las17 polyproline motif (Saccharomyces cerevisiae) (UniProt Q12446). As to conditions: cited from earlier work.
The target in data set [2] is T1, Ede1 (Ede1-3myeGFP / Ede1-3mCherry) (S. cerevisiae, UniProt P34216 1-1381).
T1 construct: Ede1, S. cerevisiae, homolog of mammalian Eps15; expressed from its own locus; also called wild-type Ede1; full-length Ede1; source: S. cerevisiae, chromosomally tagged at the endogenous locus, in living cells; not shown: 3myeGFP, C-terminal, kept; 3mCherry, C-terminal, kept
T1 sequence (looked up): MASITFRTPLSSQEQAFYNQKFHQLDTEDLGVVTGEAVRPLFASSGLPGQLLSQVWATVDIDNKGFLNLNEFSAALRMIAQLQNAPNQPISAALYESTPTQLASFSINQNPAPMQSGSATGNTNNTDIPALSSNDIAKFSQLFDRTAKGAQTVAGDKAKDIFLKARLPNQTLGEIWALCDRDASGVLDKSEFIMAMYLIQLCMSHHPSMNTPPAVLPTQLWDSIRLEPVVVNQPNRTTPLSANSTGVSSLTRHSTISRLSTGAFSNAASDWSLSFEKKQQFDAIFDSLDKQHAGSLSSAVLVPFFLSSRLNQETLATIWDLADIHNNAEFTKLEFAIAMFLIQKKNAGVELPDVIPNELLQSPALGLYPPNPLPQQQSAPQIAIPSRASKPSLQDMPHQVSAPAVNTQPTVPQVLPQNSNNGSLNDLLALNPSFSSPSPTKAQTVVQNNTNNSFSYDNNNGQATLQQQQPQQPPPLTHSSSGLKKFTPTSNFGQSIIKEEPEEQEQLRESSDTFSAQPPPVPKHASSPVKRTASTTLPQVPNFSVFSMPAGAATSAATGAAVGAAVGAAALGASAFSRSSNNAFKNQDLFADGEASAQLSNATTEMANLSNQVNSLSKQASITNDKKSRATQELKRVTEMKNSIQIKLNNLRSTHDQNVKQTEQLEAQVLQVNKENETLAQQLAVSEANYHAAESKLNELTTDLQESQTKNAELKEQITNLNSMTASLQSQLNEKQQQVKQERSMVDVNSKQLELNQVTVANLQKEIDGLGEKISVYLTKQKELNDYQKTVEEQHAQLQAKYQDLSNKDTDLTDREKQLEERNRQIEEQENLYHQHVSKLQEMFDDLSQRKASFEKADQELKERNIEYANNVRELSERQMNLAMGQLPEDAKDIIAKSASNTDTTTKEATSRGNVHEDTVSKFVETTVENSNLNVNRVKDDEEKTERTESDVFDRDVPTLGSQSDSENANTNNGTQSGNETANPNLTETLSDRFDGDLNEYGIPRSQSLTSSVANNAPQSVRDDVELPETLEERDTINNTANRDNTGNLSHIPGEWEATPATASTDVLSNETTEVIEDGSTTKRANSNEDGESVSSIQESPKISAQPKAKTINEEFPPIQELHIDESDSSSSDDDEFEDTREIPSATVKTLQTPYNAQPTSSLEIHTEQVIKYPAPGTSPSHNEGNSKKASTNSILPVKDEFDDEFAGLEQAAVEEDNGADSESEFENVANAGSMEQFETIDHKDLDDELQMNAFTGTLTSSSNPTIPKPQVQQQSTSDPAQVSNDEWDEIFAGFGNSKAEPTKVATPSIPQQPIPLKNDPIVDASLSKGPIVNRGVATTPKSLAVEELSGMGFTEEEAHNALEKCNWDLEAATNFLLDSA
The experiment in a line: fluorescence cross-correlation spectroscopy (FCCS); living yeast cells, observation volume in the cytoplasm; one protein tagged with (3)myeGFP/eGFP and the other with 3mCherry in the same strain; apparent (effective) KD; interactions up to ~1 μM detectable. Conditions: partners not purified.

For another data set, the target named is T2, Apl3 (S. cerevisiae, UniProt P38065 1-1025).
T2 construct: Apl3, subunit of the AP2 complex, S. cerevisiae; also called Apl3-3myeGFP; Apl3-3mCherry; source: chromosomally tagged at the endogenous locus, in the cytoplasm of living S. cerevisiae cells
T2 sequence (looked up): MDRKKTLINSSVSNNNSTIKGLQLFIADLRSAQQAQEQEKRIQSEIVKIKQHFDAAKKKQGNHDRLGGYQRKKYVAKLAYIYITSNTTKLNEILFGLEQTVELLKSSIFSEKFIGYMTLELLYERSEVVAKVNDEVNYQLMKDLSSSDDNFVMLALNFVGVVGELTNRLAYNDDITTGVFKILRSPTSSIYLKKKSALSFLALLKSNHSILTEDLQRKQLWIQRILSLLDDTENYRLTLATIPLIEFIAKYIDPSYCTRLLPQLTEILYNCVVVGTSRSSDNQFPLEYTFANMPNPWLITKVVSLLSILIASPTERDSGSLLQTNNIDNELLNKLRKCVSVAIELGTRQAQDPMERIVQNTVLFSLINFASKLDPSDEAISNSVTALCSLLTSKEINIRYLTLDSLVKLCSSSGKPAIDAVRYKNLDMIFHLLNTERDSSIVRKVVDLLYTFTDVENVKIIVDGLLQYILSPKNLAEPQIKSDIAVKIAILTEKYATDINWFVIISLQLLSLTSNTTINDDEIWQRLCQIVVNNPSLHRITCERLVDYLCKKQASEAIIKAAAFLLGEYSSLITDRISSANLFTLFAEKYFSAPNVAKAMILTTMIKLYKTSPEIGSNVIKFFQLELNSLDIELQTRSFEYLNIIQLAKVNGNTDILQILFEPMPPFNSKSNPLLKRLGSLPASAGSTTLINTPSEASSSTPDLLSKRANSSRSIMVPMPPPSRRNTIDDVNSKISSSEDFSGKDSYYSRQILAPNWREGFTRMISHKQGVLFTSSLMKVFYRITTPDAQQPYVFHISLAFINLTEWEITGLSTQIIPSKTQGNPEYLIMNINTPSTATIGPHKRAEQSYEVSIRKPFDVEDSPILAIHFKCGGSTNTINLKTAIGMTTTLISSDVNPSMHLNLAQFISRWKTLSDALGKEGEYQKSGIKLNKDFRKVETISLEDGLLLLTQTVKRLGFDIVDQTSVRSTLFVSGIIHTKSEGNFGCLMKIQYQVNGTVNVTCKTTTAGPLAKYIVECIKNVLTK
The experiment in a line: fluorescence cross-correlation spectroscopy (FCCS); in the cytoplasm of living yeast cells; first-named protein green (3myeGFP or 1myeGFP; eGFP for Don1), second red (3mCherry); self-interaction in diploid strains with one allele of each colour; apparent or effective KD (Kdeff) from single-cell measurements; only Kdeff values < 1000 nM are shown; values for self-interactions are upper limits. As to conditions: partners not purified.

Data set [3] concerns the molecule itself. The experiment in a line: FCS molecular brightness (counts per particle per second); living yeast cells, cytoplasm; brightness of GFP-tagged particles compared with 3myeGFP and Ent2-3myeGFP (monomers) or with wild-type Ede1; average of all particles.

Turning to Sla1 SH3 domains (from UniProt P32790), in data set [1], the Kd was 56 nM.

B1: Syp1 (natural protein, S. cerevisiae, UniProt P25623 1-870, looked up)
chain: MTEQRTKYADSILTTKSPYEATETIRIRLSQVKLLNKDFYLLFKELANLKRNYAQQLRKIIAENEDITKILNAQMIESNVLTPQEMSAFRFNSLGELRNVWDTVIEELKSDLKSSTEYYNTLDQQVVRELKESVENNTSWRESKDLHSKLSKNAASIEHYSKNNENSSHLEEARRQWDQQSPYLFELFETIDYNRLDTLKNCMLRFQTSFSDYLLNTTKECETVMTKFLAFEPQSEIDRFAKDASQYNFQLSSSSKEVVPNNASPASATGARPVSVSNGAANTEREKKSPQKDKRKSAFGNIGHRLASASSSLTHNDLMNNEFSDSTNNSSLKSKKSSHTLRSKVGSIFGRNKTKNKRQQQSSSNSHIQASITETPNNSSTRVSSTATSSIYQKQRRPTYSSSKSNNWTPGEASDTPPLPPHATPKNVDAPVTADTPPAQTFTPSEVPPSTPQQSSPPTAKEPDSSNLPKTVPISISQPPLQPQSKTKPLPVEPASPSISLPTATVDNQPSGQVDSRPLHIRAPALPPSRKQNFIHNRDSQLYDSLPNHGSGATPTSSSLSSIPQERPVSTLSSQITGELRELNPQATGSSTSLVGQSLFQHSSLDTSQFGLNASIAEVLNASFKDGMLQNSQLIGEIALNYLPNSVMNSPLPIGINLRINNGAKFEKVILNQAFIERVAPEEFKVNPSFIDSRTLGAIKYSIKEPIAPIVIHPVWRFESHQASVVLTVKMSPSLPDEISQIVIEDLVVFVNIDGANATSALSKPQGSFSKEKKRITWRFKEPVVLTRNGEGQRLIARFITDGLAHESAKGVITKFTISETDNVALPHSGAGSGITLTCQELDENNPFGGEWLDVNTKRTLTTGNYHGLA
notes: Syp1, S. cerevisiae endocytic adaptor; Each copy carries one of the two tags; also called Syp1-3myeGFP; source: S. cerevisiae, chromosomally tagged at the endogenous locus, in living cells; not shown: 3myeGFP, C-terminal, kept; 3mCherry, C-terminal, kept
Regarding B1, the Kd in data set [2] is 227 nM.

B2: Apl1 (natural protein, S. cerevisiae, UniProt P27351 1-700, looked up)
chain: MSDQKVFARYKANEIVTDLQHFGVKKFKSNITRRKNALRKIIANLVLGNYGEMSVLFSELLKFWQIEDDLEVKRICHEYIRVIGALKPQQAREALPFIMDDFKSRDEKLQIMALRTLVLVPVKELSDQAFDCIISLVNHKSPPEQVTRTAIYALLDLDEIDHERVLGLSSILHDIVKAQSSSPEVIVAALHTLYSIHEKNANMEPFRIPLELAFDMLELLPELNEWNKATVLEVLTTSVVPQHYLDTHEMIELALPYLQQVNTYVVLNSLKFIMYLLNYVDVIKETLAEKLSNSVIALLDKPPELQFLVLRNVILLLLSRESSLLRLDISYFFIEYNDPIYIKDTKLECLYLLANKETLPRILEELEQYATDIDIQMSRKSVRAIGNLAVKLDEDSVHDCVAVLLDLLEFGVDYVVQEIISVFRNILRKYPNNFKANVTELVKHTEVVQEPESKNAMIWIITQYSDVIPNYLELFRVFSSNMFSETLEVQFSILNSAIKFFIRSPTKETEELCMDLLKGCIDHENNPDLRDKTLMYWRLLSLTKTSRISNAITFESLKSVLDGELPLIEMNTKLDPTVLEELELNIGTIVSIYLKPVSHIFRLNKTKLLPQSPILNPNKDLLPVVGNSFPPTGANRDRQNSESQSSTKSRKTAMMDDYDKPAEKINQLKGKRKSSSNNPSKLSRKPSTLLRKLSMKRPFS
notes: Apl1, subunit of the AP2 complex, S. cerevisiae; also called Apl1-1myeGFP; Apl1-3mCherry; source: chromosomally tagged at the endogenous locus, in the cytoplasm of living S. cerevisiae cells
As to B2, the Kd in the data set with Apl3 amounted to 37 nM.

B3: Sla2 (natural protein, S. cerevisiae, UniProt P33338 1-968, looked up)
chain: MSRIDSDLQKALKKACSVEETAPKRKHVRACIVYTWDHQSSKAVFTTLKTLPLANDEVQLFKMLIVLHKIIQEGHPSALAEAIRDRDWIRSLGRVHSGGSSYSKLIREYVRYLVLKLDFHAHHRGFNNGTFEYEEYVSLVSVSDPDEGYETILDLMSLQDSLDEFSQIIFASIQSERRNTECKISALIPLIAESYGIYKFITSMLRAMHRQLNDAEGDAALQPLKERYELQHARLFEFYADCSSVKYLTTLVTIPKLPVDAPDVFLINDVDESKEIKFKKREPSVTPARTPARTPTPTPPVVAEPAISPRPVSQRTTSTPTGYLQTMPTGATTGMMIPTATGAANAIFPQATAQMQPDFWANQQAQFANEQNRLEQERVQQLQQQQAQQELFQQQLQKAQQDMMNMQLQQQNQHQNDLIALTNQYEKDQALLQQYDQRVQQLESEITTMDSTASKQLANKDEQLTALQDQLDVWERKYESLAKLYSQLRQEHLNLLPRFKKLQLKVNSAQESIQKKEQLEHKLKQKDLQMAELVKDRDRARLELERSINNAEADSAAATAAAETMTQDKMNPILDAILESGINTIQESVYNLDSPLSWSGPLTPPTFLLSLLESTSENATEFATSFNNLIVDGLAHGDQTEVIHCVSDFSTSMATLVTNSKAYAVTTLPQEQSDQILTLVKRCAREAQYFFEDLMSENLNQVGDEEKTDIVINANVDMQEKLQELSLAIEPLLNIQSVKSNKETNPHSELVATADKIVKSSEHLRVDVPKPLLSLALMIIDAVVALVKAAIQCQNEIATTTSIPLNQFYLKNSRWTEGLISAAKAVAGATNVLITTASKLITSEDNENTSPEQFIVASKEVAASTIQLVAASRVKTSIHSKAQDKLEHCSKDVTDACRSLGNHVMGMIEDDHSTSQQQQPLDFTSEHTLKTAEMEQQVEILKLEQSLSNARKRLGEIRRHAYYNQDDD
notes: Sla2, S. cerevisiae; Each copy carries one of the two tags; also called Sla2-3myeGFP; source: S. cerevisiae, chromosomally tagged at the endogenous locus, in living cells; not shown: 3myeGFP, C-terminal, kept; 3mCherry, C-terminal, kept
Consider B3, for which the “molecular brightness per particle relative to 3myeGFP” value in data set [3] is 2 fold. The Kd in data set [2] is 590 nM.
